Measured values reported in patent US20170253633A1.

Target: HLA-A*02:01 (human)
Experiment: UV-ligand exchange + anti-b2m ELISA; ++++ = peptide exchange yield >75%

peptide exchange yield: > 75%
Binder: KLLETKWTL (modifications not checked) […]
